According to IntAct's records for PubMed 31515488:

B1: Septin-2 (Homo sapiens), Q15019 (parent)
chain: MSKQQPTQFINPETPGYVGFANLPNQVHRKSVKKGFEFTLMVVGESGLGKSTLINSLFLTDLYPERVIPGAAEKIERTVQIEASTVEIEERGVKLRLTVVDTPGYGDAINCRDCFKTIISYIDEQFERYLHDESGLNRRHIIDNRVHCCFYFISPFGHGLKPLDVAFMKAIHNKVNIVPVIAKADTLTLKERERLKKRILDEIEEHNIKIYHLPDAESDEDEDFKEQTRLLKASIPFSVVGSNQLIEAKGKKVRGRLYPWGVVEVENPEHNDFLKLRTMLITHMQDLQEVTQDLHYENFRSERLKRGGRKVENEDMNKDQILLEKEAELRRMQEMIARMQAQMQMQMQGGDGDGGALGHHV
partner: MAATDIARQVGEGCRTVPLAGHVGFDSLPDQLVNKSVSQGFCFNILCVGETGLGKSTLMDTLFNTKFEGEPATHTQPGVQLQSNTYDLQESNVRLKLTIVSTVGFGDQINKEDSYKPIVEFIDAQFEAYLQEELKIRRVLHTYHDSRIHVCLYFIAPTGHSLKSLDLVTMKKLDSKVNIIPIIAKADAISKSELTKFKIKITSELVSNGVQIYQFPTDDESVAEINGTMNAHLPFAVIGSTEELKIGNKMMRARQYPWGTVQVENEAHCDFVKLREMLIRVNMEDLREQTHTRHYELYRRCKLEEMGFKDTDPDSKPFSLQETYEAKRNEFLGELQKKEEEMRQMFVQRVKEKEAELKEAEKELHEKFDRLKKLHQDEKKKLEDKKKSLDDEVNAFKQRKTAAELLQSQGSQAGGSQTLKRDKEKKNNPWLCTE
B2: Break repair meiotic recombinase recruitment factor 1 (Homo sapiens), Q0VDD7 (parent)
chain: MTKRKKLRTSGEGLCPPKPLKNPRLGDFYGDPQSSMLGCLHHPEEPEGKLGPVPSTQQHGEEPGKAVSSSPDEETGSPCRLLRQPEKEPAPLPPSQNSFGRFVPQFAKSRKTVTRKEEMKDEDRGSGAFSLETIAESSAQSPGCQLLVETLGVPLQEATELGDPTQADSARPEQSSQSPVQAVPGSGDSQPDDPPDRGTGLSASQRASQDHLSEQGADDSKPETDRVPGDGGQKEHLPSIDSEGEKPDRGAPQEGGAQRTAGAGLPGGPQEEGDGVPCTPASAPTSGPAPGLGPASWCLEPGSVAQGSPDPQQTPSRMGREGEGTHSSLGCSSLGMVVIADLSTDPTELEERALEVAGPDGQASAISPASPRRKAADGGHRRALPGCTSLTGETTGESGEAGQDGKPPGDVLVGPTASLALAPGSGESMMGAGDSGHASPDTGPCVNQKQEPGPAQEEAELGGQNLERDLEGFRVSPQASVVLEHREIADDPLQEPGAQQGIPDTTSELAGQRDHLPHSADQGTWADSLAVELDFLLDSQIQDALDASDFEAPPEQLFPSGNKPGPCWPGPSSHANGDPVAVAKAQPRTFVGIQASEASRMEDATNVVRGLIVELSNLNRLIMGTHRDLEAFKRLNYRKTKLGGKAPLPYPSKGPGNIPRGDPPWREL
partner: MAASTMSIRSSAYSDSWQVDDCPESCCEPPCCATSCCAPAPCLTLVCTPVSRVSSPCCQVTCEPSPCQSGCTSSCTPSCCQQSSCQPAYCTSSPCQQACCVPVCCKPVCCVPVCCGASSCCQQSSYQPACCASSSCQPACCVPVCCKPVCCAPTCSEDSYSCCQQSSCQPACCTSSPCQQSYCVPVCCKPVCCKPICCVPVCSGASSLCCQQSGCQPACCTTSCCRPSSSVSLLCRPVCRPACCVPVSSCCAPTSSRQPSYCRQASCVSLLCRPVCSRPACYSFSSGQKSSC
B3: mRNA-decapping enzyme 1A (Homo sapiens), Q9NPI6 (parent)
chain: MEALSRAGQEMSLAALKQHDPYITSIADLTGQVALYTFCPKANQWEKTDIEGTLFVYRRSASPYHGFTIVNRLNMHNLVEPVNKDLEFQLHEPFLLYRNASLSIYSIWFYDKNDCHRIAKLMADVVEEETRRSQQAARDKQSPSQANGCSDHRPIDILEMLSRAKDEYERNQMGDSNISSPGLQPSTQLSNLGSTETLEEMPSGSQDKSAPSGHKHLTVEELFGTSLPKEQPAVVGLDSEEMERLPGDASQKEPNSFLPFPFEQLGGAPQSETLGVPSAAHHSVQPEITTPVLITPASITQSNEKHAPTYTIPLSPVLSPTLPAEAPTAQVPPSLPRNSTMMQAVKTTPRQRSPLLNQPVPELSHASLIANQSPFRAPLNVTNTAGTSLPSVDLLQKLRLTPQHDQIQTQPLGKGAMVASFSPAAGQLATPESFIEPPSKTAAARVAASASLSNMVLAPLQSMQQNQDPEVFVQPKVLSSAIPVAGAPLVTATTTAVSSVLLAPSVFQQTVTRSSDLERKASSPSPLTIGTPESQRKPSIILSKSQLQDTLIHLIKNDSSFLSTLHEVYLQVLTKNKDNHNL
B4: Inactive peptidyl-prolyl cis-trans isomerase FKBP6 (Homo sapiens), O75344 (parent)
chain: MGGSALNQGVLEGDDAPGQSLYERLSQRMLDISGDRGVLKDVIREGAGDLVAPDASVLVKYSGYLEHMDRPFDSNYFRKTPRLMKLGEDITLWGMELGLLSMRRGELARFLFKPNYAYGTLGCPPLIPPNTTVLFEIELLDFLDCAESDKFCALSAEQQDQFPLQKVLKVAATEREFGNYLFRQNRFYDAKVRYKRALLLLRRRSAPPEEQHLVEAAKLPVLLNLSFTYLKLDRPTIALCYGEQALIIDQKNAKALFRCGQACLLLTEYQKARDFLVRAQKEQPFNHDINNELKKLASCYRDYVDKEKEMWHRMFAPCGDGSTAGES
partner: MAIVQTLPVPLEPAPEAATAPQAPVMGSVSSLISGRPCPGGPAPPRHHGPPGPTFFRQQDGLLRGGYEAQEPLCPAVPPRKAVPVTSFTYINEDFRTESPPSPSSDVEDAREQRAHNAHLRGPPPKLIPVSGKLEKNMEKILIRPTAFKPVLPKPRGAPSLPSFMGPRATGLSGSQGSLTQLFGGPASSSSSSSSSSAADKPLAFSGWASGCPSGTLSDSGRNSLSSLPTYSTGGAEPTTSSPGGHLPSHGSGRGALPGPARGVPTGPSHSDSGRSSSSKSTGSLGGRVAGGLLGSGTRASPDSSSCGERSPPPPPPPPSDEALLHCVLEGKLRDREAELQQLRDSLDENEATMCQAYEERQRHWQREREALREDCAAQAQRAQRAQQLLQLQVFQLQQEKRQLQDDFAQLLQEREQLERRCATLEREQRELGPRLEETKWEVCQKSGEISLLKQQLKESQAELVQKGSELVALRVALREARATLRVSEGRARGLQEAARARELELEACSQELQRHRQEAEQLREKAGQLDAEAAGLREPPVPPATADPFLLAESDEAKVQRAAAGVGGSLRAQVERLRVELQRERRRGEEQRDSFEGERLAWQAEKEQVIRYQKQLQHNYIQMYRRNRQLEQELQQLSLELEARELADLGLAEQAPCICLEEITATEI
B5: Protein LDOC1 (Homo sapiens), O95751 (parent)
chain: MVDELVLLLHALLMRHRALSIENSQLMEQLRLLVCERASLLRQVRPPSCPVPFPETFNGESSRLPEFIVQTASYMLVNENRFCNDAMKVAFLISLLTGEAEEWVVPYIEMDSPILGDYRAFLDEMKQCFGWDDDEDDDDEEEEDDY
partner: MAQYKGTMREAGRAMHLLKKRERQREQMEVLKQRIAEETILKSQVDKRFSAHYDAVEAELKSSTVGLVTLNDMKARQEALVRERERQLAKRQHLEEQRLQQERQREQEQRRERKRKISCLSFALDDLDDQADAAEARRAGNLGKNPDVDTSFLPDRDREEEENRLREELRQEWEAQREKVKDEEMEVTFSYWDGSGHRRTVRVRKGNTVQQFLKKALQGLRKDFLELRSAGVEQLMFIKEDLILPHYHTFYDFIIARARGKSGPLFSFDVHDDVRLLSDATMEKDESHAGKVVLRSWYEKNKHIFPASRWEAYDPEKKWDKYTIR

Variants of: B1
Details: with sept6_human SEPTIN6, Q14141

effect of a mutation on the interaction	Variant
with no effect	MSKQQPTQFINPETPGYVGFANLPNQVHRKSVKKGFEFTLMVVGESGLGKSTLINSLFLTDLYPERVIPGAAEKIERTVQIEASTVEIEERGVKLRLTVVDTPGYGDAINCRDCFKTIISYIDEQFERYLHDESGLNRRHIIDNRVHCCFYFISPFGHGLKPLDVAFMKAIHNKVNIVPVIAKADTLTLKERERLKKRILDEIEEHNIKIYHLPDAESDEDEDFKEQTRLLKASIPFSVVGSNQLIEAKGKKVRGRLYPWGVVEVENPEDNDFLKLRTMLITHMQDLQEVTQDLHYENFRSERLKRGGRKVENEDMNKDQILLEKEAELRRMQEMIARMQAQMQMQMQGGDGDGGALGHHV [H270D]

Variants of: B2
Details: with kr109_human KRTAP10-9, P60411

effect of a mutation on the interaction	Variant
with no effect	G267R
with no effect	N576S
with no effect	L155F
with no effect	Q500R

Variants of: B3
Details: with pnrc2_human PNRC2, Q9NPJ4
pnrc2_human PNRC2, Q9NPJ4, sequence (Q9NPJ4 whole entry): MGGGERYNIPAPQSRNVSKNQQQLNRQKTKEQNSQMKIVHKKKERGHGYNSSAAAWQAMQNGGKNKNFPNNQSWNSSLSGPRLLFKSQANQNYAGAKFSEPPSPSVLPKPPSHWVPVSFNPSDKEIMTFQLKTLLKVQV

effect of a mutation on the interaction	Variant
with no effect	MEALSRAGQEMSLAALKQHDPYITSIADLTGQVALYTFCPKANQWEKTDIEGTLFVYRRSASPYHGFTIVNRLNMHNLVEPVNKDLEFQLHEPFLLYRNASLSIYSIWFYDKNDCHRIAKLMADVVEEETRRSQQAARDKQSPSQANGCSDHRPIDILEMLSRAKDEYERNQMGDSNISSPGLQPSTQLSNLGSTETLEEMPSGSQDKSAPSGHKHLTVEELFGTSLPKEQPAVVGLDSEEMERLPGDASQKEPNSFLPFPFEQLGGAPQSETLGVPSAAHHSVQPEITTPVLITPASITQSNEKHAPTYTIPLSPVLSPTLPAEAPTAQVPPSLPRNSTMMQAVKTTPRQRSPLLNQPVPELSHASLIANQSPFRAPLNVTNTAGTSLPSVDLLQKLRLTPQHDQIQTQPLGKGAMVASFSPAAGQLATPESFIEPPSKTAAARVAASASLSNMVLAPLQSMQQNQDPEVFVHPKVLSSAIPVAGAPLVTATTTAVSSVLLAPSVFQQTVTRSSDLERKASSPSPLTIGTPESQRKPSIILSKSQLQDTLIHLIKNDSSFLSTLHEVYLQVLTKNKDNHNL [Q474H]
with no effect	MEALSRAGQEMSLAALKQHDPYITSIADLTGQVALYTFCPKANQWEKTDIEGTLFVYRRSASPYHGFTIVNRLNMHNLVEPVNKDLEFQLHEPFLLYRNASLSIYSIWFYDKNDCHRIAKLMADVVEEETRRSQQAARDKQSPSQANGCSDHRPIDILEMLSRAKDEYERNQMGDSNISSPGLQPSTQLSNLGSTETLEEMPSGSQDKSAPSGHKHLTVEELFGTSLPKEQPAVVGLDSEEMERLPGDASQKEPNSFLPFPFEQLGGAPQSETLGVPSAAHHSVQPEITTPVLITPASITQSNEKHAPTYTIPLSPVLSPTLPAEAPTAQVTPSLPRNSTMMQAVKTTPRQRSPLLNQPVPELSHASLIANQSPFRAPLNVTNTAGTSLPSVDLLQKLRLTPQHDQIQTQPLGKGAMVASFSPAAGQLATPESFIEPPSKTAAARVAASASLSNMVLAPLQSMQQNQDPEVFVQPKVLSSAIPVAGAPLVTATTTAVSSVLLAPSVFQQTVTRSSDLERKASSPSPLTIGTPESQRKPSIILSKSQLQDTLIHLIKNDSSFLSTLHEVYLQVLTKNKDNHNL [P332T]

Variants of: B4
Details: with lzts2_human LZTS2, Q9BRK4

effect of a mutation on the interaction	Variant
with no effect	MGGSALNQGVLEGDDAPGQSLYERLSQRMLDISGDRGVLKDVIREGAGDLVAPDASVLVKYSGYLEHMDRPFDSNYFRKTPRLMKLGEDITLWGMELGLLSMRRGELARFLFKPNYAYGTLGCPPLIPPNTTVLFEIELLDFLDCAESDKFCALSAEQQDQFPLQKVLKVAATEREFGNYLFRQNRFYDAKVRYKRALLLLRRRSAPPEEQHLVEAAKLPVLLNLSFTYLKLDRPTIALCYGEQALIIDQKNAKALFRCGQACLLLTEYQKARDFLVRAQKEQPFNNDINNELKKLASCYRDYVDKEKEMWHRMFAPCGDGSTAGES [H287N]
with no effect	MGGSALNQGVLEGDDAPGQSLYERLSQRMLDISGDRGVLKDVIREGAGDLVAPDASVLVKYSGYLEHMDRPFDSNYFRKTPRLMKLGEDITLWGMELGLLSMRRGELARFLFKPNYAYGTLGCPPLIPPNTTVLFEIELLDFLDCAESDKFCALSAEQQDQFPLQKVLKVAATEQEFGNYLFRQNRFYDAKVRYKRALLLLRRRSAPPEEQHLVEAAKLPVLLNLSFTYLKLDRPTIALCYGEQALIIDQKNAKALFRCGQACLLLTEYQKARDFLVRAQKEQPFNHDINNELKKLASCYRDYVDKEKEMWHRMFAPCGDGSTAGES [R175Q]

Variants of: B5
Details: with fa50b_human FAM50B

effect of a mutation on the interaction	Variant
disrupting interaction strength	L12H
